Laboratory results as given in the nanobody polyreactivity screen of Harvey et al. (2022).

Assay: yeast display, Sf9 membrane polyspecificity reagent, FACS + sequencing; frameworks hold sequencing errors
Outline: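 Sorting gates, low and high (top ~1%), were placed on anti-HA fluorescence to track expression and on streptavidin fluorescence to track reagent binding. A clone's polyreactivity label is taken from the gate it came out of. The reagent was 10% biotinylated, detergent-solubilized Sf9 membrane, applied for 1 hour at 4 °C to galactose-induced yeast display cells.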
For “QVQLVESGGGLVQAGGSLRLSCAASGLTLYRYAMGWYRQAPGKERELVAGISWGGGSTYYADSVKGRFTISRDNAKNTVYLQMNSLKPEDTAVYYCAAGRLLYIPRYYYWGQGTQVTVSS”, the “polyreactivity (PSR sort gate)” value was “high polyreactivity”. With “QVQLVESGGGLVQAGGSLRLSCAASGSIIDYYAMGWYRQAPGKERELVAAISSSVGITYYADSVKGRFTISRDNAKNTVYLQMNSLKPEDTAVYYCAADLYGWYFYNQEYDSWGQGTQVTVSS” the “polyreactivity (PSR sort gate)” value was “low polyreactivity”. In the case of “QVQLVESVGGLVQAGGSLRLSCAASVFIFRSYAMGWYRQAPGKERELVASISRRGASTYYADSVKGRFTISRDNAKNTVYLQMNSLKPEDTAVYYCNADGLRGFYTGAYDYDYWGQGTQVTVSS”, the “polyreactivity (PSR sort gate)” value is reported as “high polyreactivity”. In the case of “QVQLVESGGGLVQAGGSLRLSCAASGFIFHYNAMGWYRQAPGKERELVAAISARGGGTYYADSVKGRFTISRDNAKNTVYLQMNSLKPEDTAVYYCAAGNYPLGDGYWGQGTQVTVSS”, the “polyreactivity (PSR sort gate)” value is reported as “high polyreactivity”. With “QVQLVESGGGLVQAGGSLRLSCAASGITFNRYAMGWYRQAPGKERELVATISYRGGSTSYADSVKGRFTISRDNAKNTVYLQMNSLKPEDTAVYYCATDEGYVLFKYYSWGQGTQVTVSS” the “polyreactivity (PSR sort gate)” value was “low polyreactivity”. For “QVQLVESGVGLVQARGSLRLSCAASGITFRRYAMGWYRQPPGKERELVAAITSSGGSTYYADSVKGRFTIPRDNAKNTVYLQMNSLKPEDTAVYYCAAAFFSQYYLYDYWGQGTQVTVSS”, the “polyreactivity (PSR sort gate)” value was “high polyreactivity”. In the case of “QVQLVESGGGLVQAGGSLRLSCAASGFTFIRYAMGWYRQAPGKEREVVAAISWRVGITYYADSVKGRFTISRDNAKNTVYLQMNSQKPEDTAVYYCARDYRNPPFAYEYWGQGTQVTVSS”, the “polyreactivity (PSR sort gate)” value is reported as “low polyreactivity”. In the case of “QDQRVESGGGIDQAGGSLRLSCAASGSTVDFNAMGWYRQAPGTERELVAAITYSGGSTYYADSVKGRFTISRDNAKNTVYLQMNSLKPQDTAVYYCAAEDVYPGSIDMDYWGQGTQVSVSS”, the “polyreactivity (PSR sort gate)” value is reported as “low polyreactivity”. In the case of “QVQLVESGGGLVQAVGSLRLSCAASGRIFYSYAMGWYRQAPGKERELVAAITRGGSTSYADSVKGRFTISRDNAKNTVYLQMNSLKPDDTAVYYCATRQFYSYWKYYYWGQGTQVTVSS”, the “polyreactivity (PSR sort gate)” value is reported as “high polyreactivity”. For “QVQLVESGGGLVQAGGSLRLSCAASGLIFGYYAMGWYRQAPGKERELVAAISSSGTRTYYADSVKGRFTISRDNAMNTVYLQMNSLKPEDTAVYYCNADSYGSRYEYWGQGTQVTVSS”, the “polyreactivity (PSR sort gate)” value was “high polyreactivity”. For “QVQLVESGGGLVQAGGSLRLSCAASGSTFDSNVMGWYRQAPGKERELVAVINGSGSNTYYADSVKGRFTISRDNAKNTVYLQMNSLKPEDTAVYYCAVERSVYSYYYWGQGTQVTVSS”, the “polyreactivity (PSR sort gate)” value was “high polyreactivity”. With “QVQLVESGGGLVQAGGSLRLSCAASGSIFSYYAMGWYRQAPGKERELVAAITTSGGSTYYADSVKGRFTISRDNAKNTVYLQMNSLKPEDTAVYYCNAGPYWWYYGEDYWGQGSQVTVSS” the “polyreactivity (PSR sort gate)” value was “low polyreactivity”. For “QVQLVESGGGLVQAGGSLRLSCAASGSIFYVNAMGWYRQEPGKERELVAAISYRGGSTYYADSVKGRFTISRDNAKNTVYLQMNSLKPEDTSVYYCAKRLYGSYHSDYWGQGTQVTVSS”, the “polyreactivity (PSR sort gate)” value was “high polyreactivity”. With “QGQLVESGGGLVQAGGSLRLSCAASGSILRSYAMGWSIQAPRKVRELVATITRSAGRTYYADSVKGRFTISRDNAKNTVYLQMNSLKPEDTALYYCAACYCDTETGYREYDYWGQGTQVNVSS” the “polyreactivity (PSR sort gate)” value was “low polyreactivity”. With “QVQLVESGGGLVQAGGSLRLSCADSGRIFRDYAMGWYRQAPGKERELVAAISRSGGSTYYADSVKGRFTISRDNAKNTVYLQVNSLKPEDTAVFYCAAKYYYGGNGYWGQGTQVTVSS” the “polyreactivity (PSR sort gate)” value was “low polyreactivity”. With “QVQIVESGGGLVQAGGRLRLSCSASGSIFDWYDMGWYRQAPGKERELVAAITTGGITNYADSVKGRFTLSRDNAKNTVYLQMNSLKPEDTAVYYCAADSLGVYDGDYWGQGTQVTVSS” the “polyreactivity (PSR sort gate)” value was “low polyreactivity”. With “QVQLVESGGGLVQAGGSLRLSCAASGRTFYPYAMGWYRQAPGKERELVAAISSSGGSTYYADSVKGRFTISRDNAKNTVYLQRNSLKPEYTPVYYCASYLRPGGNYYWGQGTQVTVSS” the “polyreactivity (PSR sort gate)” value was “high polyreactivity”. With “QVQLVESGGGLVQAGGSLRLSCAASGFTFYRYAMGWYRQAPGKERELVAAISRTGGSTYYADSVKGRFTISRDNAKNTVYLQMNSLKPEDTAVYYCAAERKARTSWYGAASRYYYWGQGTQVTVSS” the “polyreactivity (PSR sort gate)” value was “high polyreactivity”. For “QVQLVESGGGLVQARGSLRLSCAASGGIFYRNAMGWYRQAPGKERELVAAITQSGGRTYYADSVKGRFTISRDNAKNTVYLQMNSLKPEDTADYYCAKSRYTPTGSLQLNYWGQGTQVTVSS”, the “polyreactivity (PSR sort gate)” value was “high polyreactivity”. For “QVQLVESLGGLVQAGGSLRLSCAASGFTFGAYAMGLYRPAPGKERELVATMDWRGSSTYYADSVKGRFTISRDNAKNTVYLQINCLKPVDTAVYYCAARLARGSYAYEYWGHGTQVTVSS”, the “polyreactivity (PSR sort gate)” value was “low polyreactivity”. With “QVQLVESGGGLVQAGGSLRLSCAASGSIFGKYTMGWYRQAPGKERELVAAISRSGSSTYYADSVKGRFTISRDNAKNTVYLQMNSLKPEDTAVYYCAAKFYYGVTSKFESWGQGTQVTVSS” the “polyreactivity (PSR sort gate)” value was “high polyreactivity”. With “QVQLVESGGGLVLAGGSLRLSCAASGFTFPHYAMGWYRQAPGKERELVAVISWSGSSTYYADSVKGRFTISRDNAKNTVYLQMNSLKPEDTAVYYCNTRKLYQVDYDYWGQGTQVTVSS” the “polyreactivity (PSR sort gate)” value was “high polyreactivity”. For “QVQLVESGGGLVQAGGSLRLSCAASGYTFPLYAMGWYRQAPGKERELVADINIGGASTYYADSVKGRFTISRDNAKNTVYLQMYSLKPEDTAVYYCAKEYYDGYFPTFDYDYWGQGTQVTVSS”, the “polyreactivity (PSR sort gate)” value was “low polyreactivity”. For “QVQLVESGGGLVQAGGSLRLSCAASGSIFRVYAMGWYRQAPGKERELVAAITSRGGSTYYADSVKGRFTISRDNAKNTVYLQMNSLKQEDTAVYYCAAAYPYRTGRGYYWGQGTQVTVSS”, the “polyreactivity (PSR sort gate)” value was “high polyreactivity”. With “QVQLVESGGGLVQAGGRLRITCAASGRTFKTYAMGWYRPAPGKERELVAAISRRGGSTYFADSVKGRFTISRDNAKNTVYLQMNSLKPEDTAVYYCASGNSVGLGWGQGTQVTLSS” the “polyreactivity (PSR sort gate)” value was “high polyreactivity”. With “QVQLVESGGGLVQAGGSLRLSCAASGFTFWIYAMGWYRQAPGKERELVAAISASGGSTRYADSVKVRFTISRDNAKNTVYLQMNSLKPEDTAVYYCAAYHGLRRGFDYWGPGTQVTVSS” the “polyreactivity (PSR sort gate)” value was “high polyreactivity”. In the case of “QVQLVESGGGLVQAGGSLRLSCSASGSIFSHYVMGWYRQAPGKERELVAAISPSGDSTYYADSVKGRFTISRDNAKNTVYLQMNSLKPEDTAVYYCNAGFGQYRYRGHDDYWGQGTQVTVSS”, the “polyreactivity (PSR sort gate)” value is reported as “high polyreactivity”. With “QVQLVESGGGLVQAGGSLRLSCAASGSTFWHYVMGWYRQAPGKERELVAAISNGGRTNYADSVKGRFTISRDNAKNTVYLHMKSMKPEVTAVYYCAARRRVSYHLYGYWGQGTQVTVSS” the “polyreactivity (PSR sort gate)” value was “high polyreactivity”. For “QVQLVSGGGLVHSGGSLRLSCAASGITFESNAMGWYRQGPGKEREFVAAISYDGGDTYYADSVKGRFTISRDNAKNTVYLQMNSLKPDDTSVYYCAAETGWTMDYWGQGTQVTVSS”, the “polyreactivity (PSR sort gate)” value was “low polyreactivity”. With “QVQLVESGGGLVQAGGSLRLSCAASGLSLGVYTLGWYRQAPGKEREFVASINYGGGSTYYADSVKGRFTISRDNAKNTVYLQMNSLKPEDTAVYYCNARSRWGGTRLYSYDYWGQGTQVTVSS” the “polyreactivity (PSR sort gate)” value was “low polyreactivity”. For “QVQLVESGGGLVQAVGSLRLSCAASGHIFCYYTMGRYRQAPGKERELVAGITIGGSTNYADSVKGRFTISRDNAKNTVYLQMNSLKPEDTAVYYCNVVKYVYIYSYWEYYYWGQGTQVTVSS”, the “polyreactivity (PSR sort gate)” value was “low polyreactivity”. With “QVQLVESGGGLVQAGGSLRLSCAASGFTFYGYAMGWYRQAPGKERELVATIRRSTGSTYYADSVKGRFTISRDNAKNTVYLQMNSLKPEDTAVYYCATRVWFPITSYDYWGQGTQVTVSS” the “polyreactivity (PSR sort gate)” value was “low polyreactivity”. With “QVQLVESGGGLVQAGGSLRLSCAASGRIFRRNTMGWYRQAPGKEREVVAAITSSGGSTYADSVKGRFTISRDNAKNTVYLQMNSLKPEDTAVYYCATYVAYHRGYRTYDHWGQGTQVTVSS” the “polyreactivity (PSR sort gate)” value was “low polyreactivity”. For “QVQLVESGGGIVQAGGSLRLSCAASGIIFWNYTMGWYRQAPGKERELVAAISVSGGSTYYADSVKGRFTISRDNAKNTVYLQMNSLKPEDTAVYYCAAEWIYPSPHYEYDYWGQGTQVTVSS”, the “polyreactivity (PSR sort gate)” value was “high polyreactivity”. For “QVQLVESGGGLVQAGGSLRLSCAASGSIFTAYALGWYRQAPGKERELVAAIDDSGDSTYYADSVKGRFTISRDNAKNTVYLQMHSLKPEDTAVNYCKAEYRVNKEYDYWGQGTQVTVSS”, the “polyreactivity (PSR sort gate)” value was “low polyreactivity”. With “QVQLVESGGGLVQAGGSLRLSCAASGFIFPFYAMGWYRQAPGKERELVAVIRTSSDRTYYADSVKGRFTISRDNAKNTVYLQMNSLKPEDTAVYYCAAETYRLFDYWGQGTQVTVSS” the “polyreactivity (PSR sort gate)” value was “low polyreactivity”. For “QVQLQESGGGLVQAGGSLRLSCAASGYISQSSVMGWYRQAPGKEREFVASISYGATTYYADSVKGRFTISRDNAKNTVYLQTNSPKPEDTAVYYCAVLVKRGFSHRYWGQGTQVTVSS”, the “polyreactivity (PSR sort gate)” value was “high polyreactivity”. With “QVQLVESGGGLVQAGGSLRLSCAASGSIFSTNAMGWYRQAPRKERELVAAITYSGSRTYYADSVKGRFTISRDNAKNTVYLQMNSLKPEDTAVYYCAADTSWYSWWFDYWGQGTQVTVSS” the “polyreactivity (PSR sort gate)” value was “low polyreactivity”. In the case of “QVQLVESGGGLVQAGGSLRLSCAASGINFQRNDMGWYRQAPGKERELVANIRDGGITYADSVKGRFTISRDNAKNTVYLQMNSLKPEDTAVYYCARDDTSPGYGDQSSNAAYYYWGQGTQVTVSS”, the “polyreactivity (PSR sort gate)” value is reported as “low polyreactivity”. For “QVQLVESGGGLVQAGGSLRLSCAASGFTFPGYTKGWYIQAPGKERELVATISRSGGSMFYADSVKGRFTISRDNAKNTVYLQMNSLKPEDTAVYYCNKSPSWWRYKTGLDYWGQGTQVTVSS”, the “polyreactivity (PSR sort gate)” value was “high polyreactivity”. In the case of “QVQLVESGGGLVQAGGSLRLSCAASGRIFPKYAMGWYRQAPGKERELVAAISRRGSSTYYADSVKGRFTISRDNAKNTVYLQMTSLKPEDTAVYYCATDARDGHDYWGQGTQVTVSS”, the “polyreactivity (PSR sort gate)” value is reported as “high polyreactivity”.
